Assay [1] concerns the target prostate specific membrane antigen (PSMA), full-length (human) (UniProt Q04609). The assay can be described thus: radiolabelled mAb bound to PSMA-3T3 cells.
The target is the same in assay [2]. The assay is described as follows: radiolabelled mAb bound to PSMA-3T3 cells (bracket: 3T3 control).
Assay [3] has the same target. The assay is described as follows: radiolabelled mAb bound to PSMA-expressing cells, average.
For assay [4] the target is unchanged. The assay is described as follows: cell-based or functional assay.

Sequence of prostate specific membrane antigen (PSMA), full-length (human) (Q04609 whole entry): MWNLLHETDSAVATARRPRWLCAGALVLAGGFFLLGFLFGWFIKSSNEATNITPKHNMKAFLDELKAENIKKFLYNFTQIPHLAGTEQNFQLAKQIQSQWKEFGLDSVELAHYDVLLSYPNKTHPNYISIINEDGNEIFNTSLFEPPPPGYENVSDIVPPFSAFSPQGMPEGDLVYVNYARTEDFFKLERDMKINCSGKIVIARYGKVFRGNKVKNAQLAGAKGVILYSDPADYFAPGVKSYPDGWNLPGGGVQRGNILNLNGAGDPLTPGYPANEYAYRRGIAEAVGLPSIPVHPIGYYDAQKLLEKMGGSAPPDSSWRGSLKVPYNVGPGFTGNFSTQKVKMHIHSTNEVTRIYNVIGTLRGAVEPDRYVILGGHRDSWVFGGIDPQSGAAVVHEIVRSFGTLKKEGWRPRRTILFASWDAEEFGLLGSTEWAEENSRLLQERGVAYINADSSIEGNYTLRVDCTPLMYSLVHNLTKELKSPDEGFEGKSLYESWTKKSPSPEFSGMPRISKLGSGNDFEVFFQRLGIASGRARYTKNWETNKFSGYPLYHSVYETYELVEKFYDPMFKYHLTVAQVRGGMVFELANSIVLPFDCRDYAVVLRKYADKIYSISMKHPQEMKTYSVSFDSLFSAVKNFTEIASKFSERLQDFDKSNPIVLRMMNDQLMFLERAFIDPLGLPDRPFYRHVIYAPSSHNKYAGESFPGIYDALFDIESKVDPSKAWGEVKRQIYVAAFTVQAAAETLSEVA

As to “^111In radiolabeled CHX-A″-DTPA antibody mJ591”, the Immunoreactivity (%) in assay [1] is 58.5%; in assay [2] it was 54.9%. The Immunoreactivity (%), Average in assay [3] turned out to be 56.7%.
In assay [4], mAb J591 (ATCC #HB-12126) (antibody) had an LD50, immunotoxin cytotoxicity (Mab-Zap saporin secondary) on C4-2 cells of 88.2 pM and an LD50, immunotoxin cytotoxicity (Mab-Zap saporin secondary) on PSMA-3T3 cells of 89 pM.

These data come from patent publication US20110165081A1.
